Target: Asp229 (UniProt position 204, GLPADDRVGDK)
Assay: kinetics
Conditions: 25 °C, 100 mM NaCl, 10 mM HEPES
[1] = free enzyme (the authors interpret the pH dependence of kcat/KM as ionisation of the catalytic Asp in the substrate-free enzyme)

“V4 Kemp eliminase (GNCA4-12 ancestral beta-lactamase scaffold with extra C-terminal polypeptide segment) (synthetic construct (reconstructed ancestral class A beta-lactamase, GNCA node, last common ancestor of various Gram-negative bacteria); W229D;F290W;I250V;R256H;L260F;V261L;H291V;insertion of extra C-terminal polypeptide segment (sequence not stated))” was tested, and the pKa [1] was “about 7”.
For “V4 Kemp eliminase (GNCA4-12 ancestral beta-lactamase-based de novo Kemp eliminase with an extra C-terminal polypeptide segment) (synthetic construct (reconstructed ancestral GNCA node beta-lactamase, last common ancestor of various Gram-negative bacteria); W229D;F290W;I250V;R256H;L260F;V261L;H291V;C-terminal polypeptide segment insertion)”, the pKa (free enzyme (the authors state that kcat/KM reports ionisation in the substrate-free enzyme)) was 6.7.
In the case of “V4-4 Kemp eliminase (V4 + L49I/G58Q/R230I/A257P/A262C) (synthetic construct (reconstructed ancestral class A beta-lactamase, GNCA node, last common ancestor of various Gram-negative bacteria); W229D;F290W;I250V;R256H;L260F;V261L;H291V;L49I;G58Q;R230I;A257P;A262C;insertion of extra C-terminal polypeptide segment (sequence not stated))”, the pKa [1] is reported as “about 7”.

Source: paper PMC12151457
